From patent US7288251 (ABGENIX, dated 2007)

T1: rat CD40 on blood cells (rat, UniProt A6JXD6 20-289)
T1 construct: also called rat blood
T1 sequence: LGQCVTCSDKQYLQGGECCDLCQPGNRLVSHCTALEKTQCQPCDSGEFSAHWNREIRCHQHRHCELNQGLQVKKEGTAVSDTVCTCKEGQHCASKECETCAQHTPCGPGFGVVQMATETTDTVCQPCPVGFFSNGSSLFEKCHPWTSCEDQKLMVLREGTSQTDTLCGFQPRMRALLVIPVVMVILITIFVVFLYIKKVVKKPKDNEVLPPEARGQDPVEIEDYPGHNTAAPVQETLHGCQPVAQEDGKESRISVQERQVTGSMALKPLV

T2: dog CD40 on blood cells (dog, UniProt Q7YRL5 21-274)
T2 construct: whole, on cells; also called dog blood
T2 sequence (looked up): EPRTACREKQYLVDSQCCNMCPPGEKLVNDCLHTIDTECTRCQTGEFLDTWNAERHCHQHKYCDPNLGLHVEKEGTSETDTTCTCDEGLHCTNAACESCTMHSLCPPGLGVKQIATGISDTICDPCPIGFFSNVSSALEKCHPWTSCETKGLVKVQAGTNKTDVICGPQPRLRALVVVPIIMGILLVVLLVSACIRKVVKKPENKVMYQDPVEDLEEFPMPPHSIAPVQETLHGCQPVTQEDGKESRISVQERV


Legend:
human CD40 on cells [1] = biological target: T3, human CD40 on cells (human, UniProt P25942 21-277); assay: cell-based or functional assay
T3 sequence (P25942 21-277): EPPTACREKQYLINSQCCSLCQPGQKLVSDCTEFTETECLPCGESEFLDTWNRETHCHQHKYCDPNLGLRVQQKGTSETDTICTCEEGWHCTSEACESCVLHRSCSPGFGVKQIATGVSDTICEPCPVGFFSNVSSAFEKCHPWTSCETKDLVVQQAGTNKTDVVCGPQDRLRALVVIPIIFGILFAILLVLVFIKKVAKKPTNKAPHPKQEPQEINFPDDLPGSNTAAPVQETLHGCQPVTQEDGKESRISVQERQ

human CD40 on cells [2] = biological target: T3, human CD40 on cells; assay: cell-based or functional assay; remark: listed apart in the source
TNFR-2/Ig = biological target: T4, TNFR-2/Ig; assay: ELISA, TNFR-2/Ig coated, antibody 1 µg/ml
T4 construct: also called Tumor Necrosis Factor Receptor-2
T4 sequence (P20333 23-257): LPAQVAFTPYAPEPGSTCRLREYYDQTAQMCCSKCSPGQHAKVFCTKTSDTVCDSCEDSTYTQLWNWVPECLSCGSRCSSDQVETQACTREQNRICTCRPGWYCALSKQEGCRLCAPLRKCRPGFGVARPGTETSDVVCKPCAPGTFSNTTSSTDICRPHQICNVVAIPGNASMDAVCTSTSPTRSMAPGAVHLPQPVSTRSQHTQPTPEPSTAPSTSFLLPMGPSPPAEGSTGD
Method: (§1) We then washed the plate with PBST (PBS+0.1% Tween-20) three times and blocked the plate with PBST+0.5% BSA at 150 µl/well. We incubated the plate at room temperature for 1 hour and then washed with PBST three times. […] We incubated the plate at room temperature for 1 hour then washed with PBST three times. […] We incubated the plate at room temperature for 1 hour and then washed with PBST three times. […] We then read the plate using a SpectraMax™ plate reader.

human CD40 on cells [3] = biological target: T3, human CD40 on cells; assay: cell-based or functional assay; remark: listed apart in the source
RANK/Ig = assay: ELISA, RANK/Ig coated, antibody 1 µg/ml
Sequence of RANK/Ig (Q9Y6Q6 whole entry, the tested form may be a part): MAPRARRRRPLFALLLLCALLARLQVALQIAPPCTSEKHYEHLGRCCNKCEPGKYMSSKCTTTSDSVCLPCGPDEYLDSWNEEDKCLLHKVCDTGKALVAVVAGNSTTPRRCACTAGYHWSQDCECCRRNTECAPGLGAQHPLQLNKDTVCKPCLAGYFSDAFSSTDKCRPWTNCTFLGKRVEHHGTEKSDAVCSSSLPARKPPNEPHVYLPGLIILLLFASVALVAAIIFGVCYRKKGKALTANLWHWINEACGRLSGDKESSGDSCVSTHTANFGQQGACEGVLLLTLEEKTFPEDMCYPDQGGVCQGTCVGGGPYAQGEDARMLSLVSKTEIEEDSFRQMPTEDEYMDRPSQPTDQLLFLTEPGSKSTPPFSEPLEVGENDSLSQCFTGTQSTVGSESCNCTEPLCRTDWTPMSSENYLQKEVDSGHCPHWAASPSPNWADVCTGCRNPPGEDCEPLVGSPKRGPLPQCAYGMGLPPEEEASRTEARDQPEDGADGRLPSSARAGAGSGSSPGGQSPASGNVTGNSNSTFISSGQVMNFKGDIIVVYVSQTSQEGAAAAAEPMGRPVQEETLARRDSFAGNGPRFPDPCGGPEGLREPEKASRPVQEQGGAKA
Method: as §1

[4] = biological target: T5, human CD40-IgG1 Fc fusion protein (human, UniProt P25942 21-193); assay: SPR BIAcore 3000, CD40-Ig immobilised, antibody injected
T5 construct: extracellular domain; also called CD40-Ig fusion protein; CD40-IgG fusion protein; not shown: human IgG1 Fc
T5 sequence (P25942 21-193): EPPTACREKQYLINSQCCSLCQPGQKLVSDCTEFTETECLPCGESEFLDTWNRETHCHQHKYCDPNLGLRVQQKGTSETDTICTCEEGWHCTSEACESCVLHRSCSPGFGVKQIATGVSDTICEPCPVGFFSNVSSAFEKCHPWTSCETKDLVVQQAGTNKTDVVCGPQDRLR

[5] = biological target: T6, human/mouse chimeric CD40 HuD1, D3 (human; mouse, UniProt P25942 21-64; P27512 65-94; P25942 95-147, limits assumed); assay: ELISA on chimeric CD40
T6 construct: domain: D1;domain: D2;domain: D3
T6 sequence (P25942 other isoform, or with tags, fused parts or gaps mutant limits assumed): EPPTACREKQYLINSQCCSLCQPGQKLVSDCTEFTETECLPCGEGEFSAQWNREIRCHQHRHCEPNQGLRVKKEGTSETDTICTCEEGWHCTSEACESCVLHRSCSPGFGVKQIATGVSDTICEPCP

[6] = biological target: T7, human/mouse chimeric CD40 HuD3 (mouse; human, UniProt P27512 20-94; P25942 95-147, limits assumed); assay: ELISA on chimeric CD40
T7 construct: domain: D1-D2;domain: D3
T7 sequence (P27512 other isoform, or with tags, fused parts or gaps mutant limits assumed): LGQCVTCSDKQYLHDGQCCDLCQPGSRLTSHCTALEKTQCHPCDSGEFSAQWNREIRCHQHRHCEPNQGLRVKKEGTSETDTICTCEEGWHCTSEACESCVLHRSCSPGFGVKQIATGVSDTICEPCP

[7] = biological target: T8, human/mouse chimeric CD40 HuD1 (human; mouse, UniProt P25942 21-64; P27512 65-147, limits assumed); assay: ELISA on chimeric CD40
T8 construct: domain: D1;domain: D2-D3
T8 sequence (P25942 other isoform, or with tags, fused parts or gaps mutant limits assumed): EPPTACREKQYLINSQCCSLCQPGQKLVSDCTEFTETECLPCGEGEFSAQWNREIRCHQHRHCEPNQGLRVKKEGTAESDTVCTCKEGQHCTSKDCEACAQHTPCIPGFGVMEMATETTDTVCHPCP

TNFR-1/Ig = biological target: T9, TNFR-1/Ig; assay: ELISA, TNFR-1/Ig coated, antibody 1 µg/ml
T9 construct: also called Tumor Necrosis Factor Receptor-1
T9 sequence (P19438 whole entry): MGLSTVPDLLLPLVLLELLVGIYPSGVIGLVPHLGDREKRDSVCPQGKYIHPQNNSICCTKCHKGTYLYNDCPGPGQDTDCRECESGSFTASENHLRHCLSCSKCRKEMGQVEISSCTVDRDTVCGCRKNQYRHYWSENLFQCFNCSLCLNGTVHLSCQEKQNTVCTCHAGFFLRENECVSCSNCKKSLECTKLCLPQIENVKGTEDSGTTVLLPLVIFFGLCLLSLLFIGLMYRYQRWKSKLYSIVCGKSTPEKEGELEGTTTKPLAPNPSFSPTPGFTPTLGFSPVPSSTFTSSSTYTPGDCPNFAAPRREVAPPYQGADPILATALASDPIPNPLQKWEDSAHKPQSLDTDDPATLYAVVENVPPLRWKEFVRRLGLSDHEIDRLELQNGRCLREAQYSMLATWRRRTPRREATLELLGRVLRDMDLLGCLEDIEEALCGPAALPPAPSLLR
Method: as §1

Mouse CD40(D1-D3)-6Xhis = biological target: T10, Mouse CD40(D1-D3)-6Xhis (mouse, UniProt P27512 20-147, limits assumed); assay: ELISA, 293F supernatant
T10 construct: domain: D1-D3; also called Mouse CD40(D1-D3)-6xHis fusion protein
T10 sequence (P27512 other isoform, or with tags, fused parts or gaps limits assumed): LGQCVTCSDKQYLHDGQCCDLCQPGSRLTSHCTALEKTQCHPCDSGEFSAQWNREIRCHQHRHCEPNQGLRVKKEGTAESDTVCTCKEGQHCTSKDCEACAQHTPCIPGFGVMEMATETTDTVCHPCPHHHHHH
From the text: Binding of anti-CD40 human antibodies were detected with HRP conjugated goat anti-human IgG (FC specific Caltag H10507), diluted 1:2,000.

human CD40 on cells [8] = biological target: T3, human CD40 on cells; assay: cell-based or functional assay; remark: listed apart in the source
rat CD40 on blood cells = biological target: T1, rat CD40 on blood cells; assay: FACS, whole blood
dog CD40 on blood cells = biological target: T2, dog CD40 on blood cells; assay: FACS, whole blood
[9] = biological target: T11, mouse CD40 on blood cells (mouse, UniProt P27512 20-289); assay: FACS, whole blood
T11 construct: whole, on cells; also called mouse blood
T11 sequence (P27512 20-289): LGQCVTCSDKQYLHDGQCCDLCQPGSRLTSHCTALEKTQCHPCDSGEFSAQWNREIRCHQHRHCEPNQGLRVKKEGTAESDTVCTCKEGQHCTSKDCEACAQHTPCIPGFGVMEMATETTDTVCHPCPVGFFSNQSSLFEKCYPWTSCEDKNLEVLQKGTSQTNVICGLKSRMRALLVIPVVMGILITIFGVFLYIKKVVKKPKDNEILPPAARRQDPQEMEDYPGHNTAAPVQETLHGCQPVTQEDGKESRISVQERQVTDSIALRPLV

4-1BB/Ig = biological target: T12, 4-1BB/Ig; assay: ELISA, 4-1BB/Ig coated, antibody 1 µg/ml
T12 construct: also called CD137
Method: as §1

human CD40 on cells [10] = biological target: T3, human CD40 on cells; assay: FACS on CD19/CD20+ B cells in whole blood
Method: We incubated aliquots of human and monkey whole blood for 1 hour on ice with increasing concentrations of anti-CD40 antibodies of the invention exemplified herein or with an anti-keyhole limpet hemocyanin (KLH) antibody as a negative control. We then incubated the samples for 30 minutes on ice with anti-human IgG2-conjugated RPE (phycoerythrin). We measured binding by flow cytometry of CD19/CD20 positive B cells and analyzed the histograms of fluorescence intensity (F12-H) versus cell number (Counts) using CellQuest software. We estimated binding (K_D) for each antibody from graphs of mean fluorescence intensity versus antibody concentration. We controlled for depletion of the antibody by measuring binding over a range of cell concentrations.

[11] = biological target: T5, human CD40-IgG1 Fc fusion protein; assay: ELISA, CD40/Ig coated, antibody 1 µg/ml
[12] = biological target: T13, human/mouse chimeric CD40 HuD2, D3 (mouse; human, UniProt P27512 20-64; P25942 65-147, limits assumed); assay: ELISA on chimeric CD40
T13 construct: domain: D1;domain: D2-D3
T13 sequence (P27512 other isoform, or with tags, fused parts or gaps mutant limits assumed): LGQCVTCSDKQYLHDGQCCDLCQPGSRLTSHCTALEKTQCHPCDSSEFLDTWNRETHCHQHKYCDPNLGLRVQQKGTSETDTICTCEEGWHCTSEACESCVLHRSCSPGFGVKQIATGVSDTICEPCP

[13] = biological target: T14, human/mouse chimeric CD40 HuD2 (mouse; human, UniProt P27512 20-64; P25942 65-94; P27512 95-147, limits assumed); assay: ELISA on chimeric CD40
T14 construct: domain: D1;domain: D2;domain: D3
T14 sequence (P27512 other isoform, or with tags, fused parts or gaps mutant limits assumed): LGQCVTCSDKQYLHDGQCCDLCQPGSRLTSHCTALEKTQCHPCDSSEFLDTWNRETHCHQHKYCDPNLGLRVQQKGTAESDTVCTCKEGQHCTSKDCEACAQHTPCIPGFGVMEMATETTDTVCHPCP

human CD40 on cells [14] = biological target: T3, human CD40 on cells; assay: cell-based or functional assay; remark: listed apart in the source
human CD40 on cells [15] = biological target: T3, human CD40 on cells; assay: cell-based or functional assay; remark: listed apart in the source

Binder | DC IL-12p70 secretion with LPS, EC50 (human CD40 on cells [2]) [µg/mL] | CD40 specific signal over the signal for this molecule (TNFR-2/Ig) [fold] | Allo DC/T IFNγ secretion, EC50 (human CD40 on cells [3]) [µg/mL] | CD40 specific signal over the signal for this molecule (RANK/Ig) [fold] | Kd [4] [nM] | binding result [5] | binding result [6] | binding result [7] | CD40 specific signal over the signal for this molecule (TNFR-1/Ig) [fold] | binding result (Mouse CD40(D1-D3)-6Xhis) | binding result (rat CD40 on blood cells) | binding result (dog CD40 on blood cells) | binding result [9] | CD40 specific signal over the signal for this molecule (4-1BB/Ig) [fold] | further results
monoclonal antibody 23.29.1 (antibody, human IgG2, kappa, V domains shown, Human IgG2 kappa from hybridoma; also called mAb 23.29.1; hybridoma 23.29.1 (LN 15878), ATCC PTA-4553) VH: QVQLVESGGGVVQPGRSLRLSCAASGFTFSSYAMHWVRQAPGKGLEWVAVISYDGSNKYYADSVKGRFTIYRDNSKNTLYLQMNSLRAEDTAVYYCARRGHYGNNYYSYYGLDVWGQGTTVTVSS VL: DIVMTQSPLSLPVTPGEPASISCRSSQSLLPGNGYNYLDWYLQKPGQSPQLLIYLGSNRASGVPDRFSGSGSGTDFTLKISRVEAEDVGIYYCMQALQTPRTFGQGTKVEIKR | 0.1 | ≥ 100 | 0.3 | ≥ 100 | 0.0704 | no binding | no binding | no binding | ≥ 100 | no binding | no binding | no binding | no binding | ≥ 100 | B cell B7-1 (CD80), fold increase in median intensity at 1 µg/ml (human CD40 on cells [1]): 1.3 fold; B cell B7-2 (CD86), fold increase in median intensity at 1 µg/ml (human CD40 on cells [1]): 0.9 fold; B cell CD23, fold increase in median intensity at 1 µg/ml (human CD40 on cells [1]): 1.1 fold; B cell ICAM (CD54), fold increase in median intensity at 1 µg/ml (human CD40 on cells [1]): 1 fold; B cell MHC Class II, fold increase in median intensity at 1 µg/ml (human CD40 on cells [1]): 1.2 fold; koff [4]: 3.9e-05 s⁻¹; kon [4]: 354000 M⁻¹ s⁻¹; DC B7-1 (CD80), fold increase in median intensity at 1 µg/ml, 72 h (human CD40 on cells [8]): 0.9 fold; DC B7-2 (CD86), fold increase in median intensity at 1 µg/ml, 72 h (human CD40 on cells [8]): 8.4 fold; DC CD83, fold increase in median intensity at 1 µg/ml, 72 h (human CD40 on cells [8]): 10.6 fold; DC ICAM (CD54), fold increase in median intensity at 1 µg/ml, 72 h (human CD40 on cells [8]): 1.2 fold; DC MHC Class II, fold increase in median intensity at 1 µg/ml, 72 h (human CD40 on cells [8]): 2 fold
monoclonal antibody 7.1.2 (antibody, human IgG2, kappa, V domains shown, Human IgG2 kappa from hybridoma; also called hybridoma 7.1.2 (LN 15849), ATCC PTA-3601) VH: QVQLVESGGGVVQPGRSLRLSCAASGFTFSSYGMHWVRQAPGKGLEWVAVISNDGDNKYHADSVWGRFTISRDNSRSTLYLQMNSLRAEDTAVYYCARRGMGSSGSRGDYYYYYGLDVWGQGTTVTVSS VL: not shown |  | ≥ 100 |  | ≥ 100 |  |  |  |  | ≥ 100 |  | no binding | no binding | no binding | ≥ 100 | binding result (human CD40 on cells [10]): binds; binding result [11]: binds
monoclonal antibody 21.4.1 (antibody, human IgG2, kappa, V domains shown, Human IgG2 kappa from hybridoma; also called mAb 21.4.1; hybridoma 21.4.1 (LN 15853), ATCC PTA-3605) VH: not shown VL: DIQMTQSPSSVSASVGDRVTITCRASQGIYSWLAWYQQKPGKAPNLLIYTASTLQSGVPSRFSGSGSGTDFTLTISSLQPEDFATYYCQQANIFPLTFGGGTKVEIKR | 0.3 | ≥ 100 | 0.3 | ≥ 100 | 0.348 | no binding | no binding | no binding | ≥ 100 | no binding | no binding | no binding | no binding | ≥ 100 | binding result [12]: no binding; binding result [13]: no binding; B cell B7-2 upregulation, EC50 (human CD40 on cells [14]): 0.016 µg/mL; B cell CD23 upregulation, EC50 (human CD40 on cells [14]): 0.019 µg/mL; B cell CD71 upregulation, EC50 (human CD40 on cells [14]): 0.00073 µg/mL; B cell ICAM upregulation, EC50 (human CD40 on cells [14]): 0.0153 µg/mL; B cell MHC II upregulation, EC50 (human CD40 on cells [14]): 0.00385 µg/mL; Dendritic cell B7-2 upregulation, EC50 (human CD40 on cells [15]): 0.0714 µg/mL; Dendritic cell CD83 upregulation, EC50 (human CD40 on cells [15]): 0.233 µg/mL; Dendritic cell ICAM upregulation, EC50 (human CD40 on cells [15]): 0.241 µg/mL; Dendritic cell MHC II upregulation, EC50 (human CD40 on cells [15]): 0.252 µg/mL
